Article PMC3584020

Molecular target: LexA-PRAME, P78395
Test: yeast two hybrid
Details: chain shown with the change; LexA-PRAME (1-509); β-galactosidase activity normalised to amount of protein in the extracts; parent: est. 160; read off a plot

Sequence of LexA-PRAME, P78395 (P78395 whole entry): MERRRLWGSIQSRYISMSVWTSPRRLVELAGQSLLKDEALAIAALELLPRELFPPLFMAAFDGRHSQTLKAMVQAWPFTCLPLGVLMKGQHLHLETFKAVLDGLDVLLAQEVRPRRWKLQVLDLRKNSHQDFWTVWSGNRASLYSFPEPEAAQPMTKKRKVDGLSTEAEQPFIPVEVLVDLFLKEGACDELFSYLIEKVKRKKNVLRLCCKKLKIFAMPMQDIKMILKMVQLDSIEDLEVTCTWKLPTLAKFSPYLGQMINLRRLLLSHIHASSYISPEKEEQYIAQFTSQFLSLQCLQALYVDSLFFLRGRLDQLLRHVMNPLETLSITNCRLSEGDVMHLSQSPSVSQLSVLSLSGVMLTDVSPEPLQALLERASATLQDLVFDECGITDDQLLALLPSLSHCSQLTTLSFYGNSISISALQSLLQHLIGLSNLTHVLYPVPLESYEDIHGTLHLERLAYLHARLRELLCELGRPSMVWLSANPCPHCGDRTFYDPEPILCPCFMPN

- response (Units β-Galactosidase): 5
B1: GAL4 AD-fused C. elegans ELC (wELC) L47D; L49D; Y88D; Y91D (protein)
chain: MADQNNAIQCDQDAAQPKQYGGIEGPTSQYVKLVSSDDHEFIIKREDADTSGTIRAMLSGPGVYAENESNVVYFREIPSHVLQKVCQDFADKVRYTHAATEIPEFPIPPDVALELLMAANFLDC
